B1: Compound 27: H-Cpa-cyclo[DCys-Tyr-D-(4-Benzamidophenyl)Phe-Lys-Thr-Cys]-DTyr-NH2 (peptide)
peptide: H-[Phe(4-Cl)][dC]Y[dPhe(4-benzamidophenyl)]KTC[dY]-NH2
modifications: disulfide 2-7
B2: Compound 31: H-Cpa-cyclo[DCys-Tyr-D-Cit-(N-Me)Lys-Thr-Cys]-DTyr-NH2 (peptide)
peptide: H-[Phe(4-Cl)][dC]Y[dCit]K(Me)TC[dY]-NH2
modifications: disulfide 2-7
SMILES: CNCCCC[C@@H]1NC(=O)[C@@H](CCCNC(N)=O)NC(=O)[C@H](Cc2ccc(O)cc2)NC(=O)[C@H](NC(=O)[C@@H](N)Cc2ccc(Cl)cc2)CSSC[C@@H](C(=O)N[C@H](Cc2ccc(O)cc2)C(N)=O)NC(=O)[C@H]([C@@H](C)O)NC1=O
B3: Compound 79: H-Cpa-[DCys-Tyr-DPhe(4-carbamoyl)-Lys-Thr-Cys]-NMeDTyr-NH2 (peptide)
peptide: H-[Phe(4-Cl)][dC]Y[dPhe(4-CONH2)]KTC[dNMeY]-NH2
modifications: disulfide 2-7
SMILES: C[C@@H](O)[C@@H]1NC(=O)[C@H](CCCCN)NC(=O)[C@@H](Cc2ccc(C(N)=O)cc2)NC(=O)[C@H](Cc2ccc(O)cc2)NC(=O)[C@H](NC(=O)[C@@H](N)Cc2ccc(Cl)cc2)CSSC[C@@H](C(=O)N(C)[C@H](Cc2ccc(O)cc2)C(N)=O)NC1=O
B4: Compound 25: H-Cpa-cyclo[D-Cys-Tyr-D-Phe(4-phenylureido)-Lys(Nε-Me)-Thr-Cys]-D-Tyr-NH2 (peptide)
peptide: H-[Phe(4-Cl)][dC]Y[dPhe(4-phenylureido)]K(Me)TC[dY]-NH2
modifications: disulfide 2-7
SMILES: CNCCCC[C@@H]1NC(=O)[C@@H](Cc2ccc(NC(=O)Nc3ccccc3)cc2)NC(=O)[C@H](Cc2ccc(O)cc2)NC(=O)[C@H](NC(=O)[C@@H](N)Cc2ccc(Cl)cc2)CSSC[C@@H](C(=O)N[C@H](Cc2ccc(O)cc2)C(N)=O)NC(=O)[C@H]([C@@H](C)O)NC1=O
B5: Compound 76: H-Cpa-[DCys-Tyr-DPhe(4-carbamoyl)-Lys-Thr-NMeCys]-DTyr-NH2 (peptide)
peptide: H-[Phe(4-Cl)][dC]Y[dPhe(4-CONH2)]KT[NMeC][dY]-NH2
modifications: disulfide 2-7
SMILES: C[C@@H](O)[C@@H]1NC(=O)[C@H](CCCCN)NC(=O)[C@@H](Cc2ccc(C(N)=O)cc2)NC(=O)[C@H](Cc2ccc(O)cc2)NC(=O)[C@H](NC(=O)[C@@H](N)Cc2ccc(Cl)cc2)CSSC[C@@H](C(=O)N[C@H](Cc2ccc(O)cc2)C(N)=O)N(C)C1=O
B6: Compound 26: H-Cpa-cyclo[DCys-Tyr-D-(4-carbamoyl)Phe-(N-Acetyl)Lys-Thr-Cys]-DTyr-NH2 (peptide)
peptide: XXYXXTCX
HELM: PEPTIDE1{[N[C@@H](Cc1ccc(Cl)cc1)C(=O)[*:2]].[dC].Y.[NC(=O)c1ccc(C[C@@H](N[*:1])C(=O)[*:2])cc1].K.T.C.[dY].[am]}|PEPTIDE2{[ac]}$PEPTIDE1,PEPTIDE2,5:R3-1:R2|PEPTIDE1,PEPTIDE1,2:R3-7:R3$$$V2.0
SMILES: CC(=O)NCCCC[C@@H]1NC(=O)[C@@H](Cc2ccc(C(N)=O)cc2)NC(=O)[C@H](Cc2ccc(O)cc2)NC(=O)[C@H](NC(=O)[C@@H](N)Cc2ccc(Cl)cc2)CSSC[C@@H](C(=O)N[C@H](Cc2ccc(O)cc2)C(N)=O)NC(=O)[C@H]([C@@H](C)O)NC1=O
B7: Compound 77: H-(N-Me)Cpa-cyclo[D-Cys-Tyr-D-Phe(4-carbamoyl)-Lys-Thr-Cys]-D-Tyr-NH2 (peptide)
peptide: XXYXKTCX
HELM: PEPTIDE1{[CN[C@@H](Cc1ccc(Cl)cc1)C(=O)[*:2]].[dC].Y.[NC(=O)c1ccc(C[C@@H](N[*:1])C(=O)[*:2])cc1].K.T.C.[dY].[am]}$PEPTIDE1,PEPTIDE1,2:R3-7:R3$$$V2.0
SMILES: CN[C@@H](Cc1ccc(Cl)cc1)C(=O)N[C@@H]1CSSC[C@@H](C(=O)N[C@H](Cc2ccc(O)cc2)C(N)=O)NC(=O)[C@H]([C@@H](C)O)NC(=O)[C@H](CCCCN)NC(=O)[C@@H](Cc2ccc(C(N)=O)cc2)NC(=O)[C@H](Cc2ccc(O)cc2)NC1=O
B8: Compound 36: H-Cpa-cyclo[DCys-Cpa-D-(4-carbamoyl)Phe-Lys-Thr-Cys]-DTyr-NH2 (peptide)
peptide: H-[Phe(4-Cl)][dC][Phe(4-Cl)][dPhe(4-CONH2)]KTC[dY]-NH2
modifications: disulfide 2-7
SMILES: C[C@@H](O)[C@@H]1NC(=O)[C@H](CCCCN)NC(=O)[C@@H](Cc2ccc(C(N)=O)cc2)NC(=O)[C@H](Cc2ccc(Cl)cc2)NC(=O)[C@H](NC(=O)[C@@H](N)Cc2ccc(Cl)cc2)CSSC[C@@H](C(=O)N[C@H](Cc2ccc(O)cc2)C(N)=O)NC1=O
B9: Compound 28: H-Cpa-cyclo[DCys-Tyr-D-(4-(4-methoxyphenyl)ureido)Phe-Lys-Thr-Cys]-DTyr-NH2 (peptide)
peptide: XXYXKTCX
HELM: PEPTIDE1{[N[C@@H](Cc1ccc(Cl)cc1)C(=O)[*:2]].[dC].Y.[COc1ccc(NC(=O)Nc2ccc(C[C@@H](N[*:1])C(=O)[*:2])cc2)cc1].K.T.C.[dY].[am]}$PEPTIDE1,PEPTIDE1,2:R3-7:R3$$$V2.0
SMILES: COc1ccc(NC(=O)Nc2ccc(C[C@H]3NC(=O)[C@H](Cc4ccc(O)cc4)NC(=O)[C@H](NC(=O)[C@@H](N)Cc4ccc(Cl)cc4)CSSC[C@@H](C(=O)N[C@H](Cc4ccc(O)cc4)C(N)=O)NC(=O)[C@H]([C@@H](C)O)NC(=O)[C@H](CCCCN)NC3=O)cc2)cc1
B10: Compound 32: H-Cpa-cyclo[D-Cys-Tyr-D-Phe(4-carbamoyl)-Lys(N-diMe)-Thr-Cys]-D-Tyr-NH2 (peptide)
peptide: H-[Phe(4-Cl)][dC]Y[dPhe(4-CONH2)]K(diMe)TC[dY]-NH2
modifications: disulfide 2-7
B11: Compound 35: H-Cpa-cyclo[DCys-Phe-D-(4-carbamoyl)Phe-Lys-Thr-Cys]-DTyr-NH2 (peptide)
peptide: XXFXKTCX
HELM: PEPTIDE1{[N[C@@H](Cc1ccc(Cl)cc1)C(=O)[*:2]].[dC].F.[NC(=O)c1ccc(C[C@@H](N[*:1])C(=O)[*:2])cc1].K.T.C.[dY].[am]}$PEPTIDE1,PEPTIDE1,2:R3-7:R3$$$V2.0
SMILES: C[C@@H](O)[C@@H]1NC(=O)[C@H](CCCCN)NC(=O)[C@@H](Cc2ccc(C(N)=O)cc2)NC(=O)[C@H](Cc2ccccc2)NC(=O)[C@H](NC(=O)[C@@H](N)Cc2ccc(Cl)cc2)CSSC[C@@H](C(=O)N[C@H](Cc2ccc(O)cc2)C(N)=O)NC1=O
B12: Compound 30: H-Cpa-cyclo[D-Cys-Tyr-D-Lys(Nε-nicotinoyl)-Lys(Nε-Me)-Thr-Cys]-D-Tyr-NH2 (peptide)
peptide: H-[Phe(4-Cl)][dC]Y[dK](Nicotinoyl)K(Me)TC[dY]-NH2
modifications: disulfide 2-7
SMILES: CNCCCC[C@@H]1NC(=O)[C@@H](CCCCNC(=O)c2cccnc2)NC(=O)[C@H](Cc2ccc(O)cc2)NC(=O)[C@H](NC(=O)[C@@H](N)Cc2ccc(Cl)cc2)CSSC[C@@H](C(=O)N[C@H](Cc2ccc(O)cc2)C(N)=O)NC(=O)[C@H]([C@@H](C)O)NC1=O
B13: Compound 37: H-Cpa-cyclo[DCys-Tyr-D-(4-carbamoyl)Phe-Lys-Ser-Cys]-DTyr-NH2 (peptide)
peptide: XXYXKSCX
HELM: PEPTIDE1{[N[C@@H](Cc1ccc(Cl)cc1)C(=O)[*:2]].[dC].Y.[NC(=O)c1ccc(C[C@@H](N[*:1])C(=O)[*:2])cc1].K.S.C.[dY].[am]}$PEPTIDE1,PEPTIDE1,2:R3-7:R3$$$V2.0
SMILES: NCCCC[C@@H]1NC(=O)[C@@H](Cc2ccc(C(N)=O)cc2)NC(=O)[C@H](Cc2ccc(O)cc2)NC(=O)[C@H](NC(=O)[C@@H](N)Cc2ccc(Cl)cc2)CSSC[C@@H](C(=O)N[C@H](Cc2ccc(O)cc2)C(N)=O)NC(=O)[C@H](CO)NC1=O
B14: Compound 80: H-NMeCpa-[DCys-NMeTyr-DPhe(4-carbamoyl)-Lys-NMeThr-Cys]-NMeDTyr-NH2 (peptide)
peptide: H-[NMePhe(4-Cl)][dC][NMeY][dPhe(4-CONH2)]K[NMeT]C[dNMeY]-NH2
modifications: disulfide 2-7
SMILES: CN[C@@H](Cc1ccc(Cl)cc1)C(=O)N[C@@H]1CSSC[C@@H](C(=O)N(C)[C@H](Cc2ccc(O)cc2)C(N)=O)NC(=O)[C@H]([C@@H](C)O)N(C)C(=O)[C@H](CCCCN)NC(=O)[C@@H](Cc2ccc(C(N)=O)cc2)NC(=O)[C@H](Cc2ccc(O)cc2)N(C)C1=O
B15: Compound 34: H-Cpa-cyclo[DCys-Tyr-D-4-(carbamoyl)Phe-Lys-tBu-Gly-Cys]-DTyr-NH2 (peptide)
peptide: H-[Phe(4-Cl)][dC]Y[dPhe(4-CONH2)]K[Tle]C[dY]-NH2
modifications: disulfide 2-7
SMILES: CC(C)(C)[C@@H]1NC(=O)[C@H](CCCCN)NC(=O)[C@@H](Cc2ccc(C(N)=O)cc2)NC(=O)[C@H](Cc2ccc(O)cc2)NC(=O)[C@H](NC(=O)[C@@H](N)Cc2ccc(Cl)cc2)CSSC[C@@H](C(=O)N[C@H](Cc2ccc(O)cc2)C(N)=O)NC1=O
B16: Compound 33: H-Cpa-cyclo[DCys-Tyr-D-4-(carbamoyl)Phe-Lys-Val-Cys]-DTyr-NH2 (peptide)
peptide: XXYXKVCX
HELM: PEPTIDE1{[N[C@@H](Cc1ccc(Cl)cc1)C(=O)[*:2]].[dC].Y.[NC(=O)c1ccc(C[C@@H](N[*:1])C(=O)[*:2])cc1].K.V.C.[dY].[am]}$PEPTIDE1,PEPTIDE1,2:R3-7:R3$$$V2.0
SMILES: CC(C)[C@@H]1NC(=O)[C@H](CCCCN)NC(=O)[C@@H](Cc2ccc(C(N)=O)cc2)NC(=O)[C@H](Cc2ccc(O)cc2)NC(=O)[C@H](NC(=O)[C@@H](N)Cc2ccc(Cl)cc2)CSSC[C@@H](C(=O)N[C@H](Cc2ccc(O)cc2)C(N)=O)NC1=O
B17: Compound 29: H-Cpa-cyclo[DCys-Tyr-D-(4-carbamoyl)Phe-Arg-Thr-Cys]-DTyr-NH2 (peptide)
peptide: XXYXRTCX
HELM: PEPTIDE1{[N[C@@H](Cc1ccc(Cl)cc1)C(=O)[*:2]].[dC].Y.[NC(=O)c1ccc(C[C@@H](N[*:1])C(=O)[*:2])cc1].R.T.C.[dY].[am]}$PEPTIDE1,PEPTIDE1,2:R3-7:R3$$$V2.0
SMILES: C[C@@H](O)[C@@H]1NC(=O)[C@H](CCCNC(=N)N)NC(=O)[C@@H](Cc2ccc(C(N)=O)cc2)NC(=O)[C@H](Cc2ccc(O)cc2)NC(=O)[C@H](NC(=O)[C@@H](N)Cc2ccc(Cl)cc2)CSSC[C@@H](C(=O)N[C@H](Cc2ccc(O)cc2)C(N)=O)NC1=O
B18: Compound 78: H-Cpa-[NMeDCys-Tyr-DPhe(4-carbamoyl)-Lys-Thr-Cys]-DTyr-NH2 (peptide)
peptide: H-[Phe(4-Cl)][dNMeC]Y[dPhe(4-CONH2)]KTC[dY]-NH2
modifications: disulfide 2-7
SMILES: C[C@@H](O)[C@@H]1NC(=O)[C@H](CCCCN)NC(=O)[C@@H](Cc2ccc(C(N)=O)cc2)NC(=O)[C@H](Cc2ccc(O)cc2)NC(=O)[C@H](N(C)C(=O)[C@@H](N)Cc2ccc(Cl)cc2)CSSC[C@@H](C(=O)N[C@H](Cc2ccc(O)cc2)C(N)=O)NC1=O

Starred links: 1 amine or outer side, 2 acyl side, 3 side chain; linkers in the order of their positions; H or OH if unused. Positions of bridges follow the written chain, without caps; N, C: chain ends. Non-standard residues stand in square brackets, D forms with d. *: point of attachment. dPhe(4-phenylureido) = D-4-(phenylureido)Phe, O=C(Nc1ccccc1)Nc1ccc(C[C@@H](N[*:1])C(=O)[*:2])cc1; dPhe(4-CONH2) = NC(=O)c1ccc(C[C@@H](N)C(=O)O)cc1; NMePhe(4-Cl) = CN[C@@H](Cc1ccc(Cl)cc1)C(=O)O; Phe(4-Cl) = N[C@@H](Cc1ccc(Cl)cc1)C(=O)O; NMeY = CN[C@@H](Cc1ccc(O)cc1)C(=O)O; dNMeY = CN[C@H](Cc1ccc(O)cc1)C(=O)O; NMeT = CN[C@H](C(=O)O)[C@@H](C)O; dCit = NC(=O)NCCC[C@@H](N)C(=O)O; Tle = CC(C)(C)[C@H](N)C(=O)O; Nicotinoyl = O=C(c1cccnc1)*; NMeC = CN[C@@H](CS)C(=O)O; dNMeC = CN[C@H](CS)C(=O)O

This experiment deals with somatostatin receptor type 2 (SSTR2) (UniProt P30874 1-369). Description: cell-based or functional assay.
somatostatin receptor type 2 (SSTR2), sequence (P30874 whole entry): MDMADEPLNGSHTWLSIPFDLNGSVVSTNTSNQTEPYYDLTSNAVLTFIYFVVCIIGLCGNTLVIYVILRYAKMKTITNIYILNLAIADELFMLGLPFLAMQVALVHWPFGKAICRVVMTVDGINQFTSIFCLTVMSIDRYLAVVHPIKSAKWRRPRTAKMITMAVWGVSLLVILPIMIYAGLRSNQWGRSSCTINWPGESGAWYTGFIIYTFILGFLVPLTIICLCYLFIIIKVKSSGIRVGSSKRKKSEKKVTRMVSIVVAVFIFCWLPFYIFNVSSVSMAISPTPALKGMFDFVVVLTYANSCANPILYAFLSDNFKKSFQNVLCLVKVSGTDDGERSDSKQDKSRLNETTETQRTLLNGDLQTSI
Consider B1, for which the “IC50 (PathHunter β-Arrestin, antagonist mode)” value (shortened to “IC50”) was determined as 34.7 nM.

On to B2, for which the “IC50” value came to 70.4 nM.

For the molecule B3, the “IC50” value turned out to be 28.7 nM.

On to B4, for which the “IC50” value worked out at 2.32 nM.

Take B5: the “IC50” value amounted to 400 nM.

On to B6, for which the “IC50” value was > 1000 nM.

Turning to B7, the “IC50” value amounted to 2.25 nM.

Turning to B8, the “IC50” value amounted to 28.7 nM.

B9: the “IC50” value was found to be 104 nM.

As to B10, the “IC50” value was 2.46 nM.

Take B11: the “IC50” value amounted to 35.9 nM.

Regarding B12, the “IC50” value amounted to 177 nM.

B13: the “IC50” value was 10.6 nM.

With B14, the “IC50” value is > 1000 nM.

Regarding B15, the “IC50” value worked out at 43.4 nM.

As for B16, the “IC50” value is 56 nM.

With B17, the “IC50” value came out at 398 nM.

B18: the “IC50” value is 6.79 nM.

The values above are taken from patent publication US20190040102A1 (CDRD VENTURES, published 2019).
